Tests used:
Dulaglutide = assay: BLI
[1] = target: T1, human GLP-1 receptor (Abcam) (human, UniProt P43220 24-145); assay: BLI
T1 chain: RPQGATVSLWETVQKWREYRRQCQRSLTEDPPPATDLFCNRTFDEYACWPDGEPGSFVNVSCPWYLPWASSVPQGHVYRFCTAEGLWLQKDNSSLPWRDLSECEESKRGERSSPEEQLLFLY

B1: GLP-1 receptor (receptor)
chain: RPQGATVSLWETVQKWREYRRQCQRSLTEDPPPATDLFCNRTFDEYACWPDGEPGSFVNVSCPWYLPWASSVPQGHVYRFCTAEGLWLQKDNSSLPWRDLSECEESKRGERSSPEEQLLFLY
Kd (Dulaglutide): 0.395 µM

B2: GLP-1(A2G)-hyFc9 (Fc fusion)
chain: HGEGTFTSDVSSYLEGQAAKEFIAWLVKGRGAKATTAPATTRNTGRGGEEKKKEKEKEEQEERETKTPECPSHTQPLGVFLFPPKPKDTLMISRTPEVTCVVVDVSQEDPEVQFNWYVDGVEVHNAKTKPREEQFNSTYRVVSVLTVLHQDWLNGKEYKCKVSNKGLPSSIEKTISKAKGQPREPQVYTLPPSQEEMTKNQVSLTCLVKGFYPSDIAVEWESNGQPENNYKTTPPVLDSDGSFFLYSRLTVDKSRWQEGNVFSCSVMHEALHNHYTQKSLSLSLGK
modifications: O-glycosylation at the IgD hinge region (positions not stated)
Kd [1]: 45 µM
